# Reference: patent US20190038660
# System: ZF6-DBD (Artificial Sequence)
# Assay: cell_activity
# Settings: in vivo porcine retina, AAV8 DBR-R vector 1x10^12 gc, hRHO-s-ΔZF6 promoter, qPCR 2 months after delivery; binding inferred from repression, not measured …
# ZF6-DBD (Artificial Sequence), sequence (chain, as listed by the source): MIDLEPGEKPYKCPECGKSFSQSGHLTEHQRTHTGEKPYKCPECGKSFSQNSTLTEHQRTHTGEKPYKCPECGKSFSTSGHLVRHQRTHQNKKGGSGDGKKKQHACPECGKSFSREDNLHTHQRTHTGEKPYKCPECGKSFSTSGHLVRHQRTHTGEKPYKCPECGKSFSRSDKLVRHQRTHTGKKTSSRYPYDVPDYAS
substance,measurement,value
porcine Rhodopsin proximal promoter (ZF6 target region),activity (% repression of Rho transcript),35
